Paper PMC10253835, “Plakophilin-3 Binds the Membrane and Filamentous Actin without Bundling F-Actin” (International Journal of Molecular Sciences, 2023)

Target: the molecule itself
Experiment: SEC; purified plakophilin-3 on Superdex S-200 10/300; methods give 20 mM Tris pH 7.5, 150 mM NaCl, 1 mM dithiothreitol; dimer and monomer peaks pooled and reloaded; more dimer at higher concentration and lower reducing conditions, mainly monomer with dithiothreitol or TCEP

B1: plakophilin-3 (residues 305-797) (domain or fragment, human, UniProt Q9Y446 305-797, looked up)
chain: SHRTLQRLSSGFDDIDLPSAVKYLMASDPNLQVLGAAYIQHKCYSDAAAKKQARSLQAVPRLVKLFNHANQEVQRHATGAMRNLIYDNADNKLALVEENGIFELLRTLREQDDELRKNVTGILWNLSSSDHLKDRLARDTLEQLTDLVLSPLSGAGGPPLIQQNASEAEIFYNATGFLRNLSSASQATRQKMRECHGLVDALVTSINHALDAGKCEDKSVENAVCVLRNLSYRLYDEMPPSALQRLEGRGRRDLAGAPPGEVVGCFTPQSRRLRELPLAADALTFAEVSKDPKGLEWLWSPQIVGLYNRLLQRCELNRHTTEAAAGALQNITAGDRRWAGVLSRLALEQERILNPLLDRVRTADHHQLRSLTGLIRNLSRNARNKDEMSTKVVSHLIEKLPGSVGEKSPPAEVLVNIIAVLNNLVVASPIAARDLLYFDGLRKLIFIKKKRDSPDSEKSSRAASSLLANLWQYNKLHRDFRAKGYRKEDFLGP
notes: pET28 construct with eight histidines followed by an HRV-3C site at the amino terminus; no cleavage step is described; The protein is found as monomer and as homodimer; also called armadillo repeat motif domain of plakophilin-3; Pkp3; source: E. coli BL21(DE3) Rosetta2, purified (Ni-nitriloacetic acid column, Superdex S-200 size exclusion)
stoichiometry N: 2
